Measured values as given in PMC8628261 (Cell reports, 2021).

Target: the molecule itself
Assay: AUC

| Protein | Kd | stoichiometry N |
| --- | --- | --- |
| mouse Kirrel3 ectodomain, wild type (domain or fragment, UniProt Q8BR86 22-535, looked up) LQKRGCCLVLGYMAKDKFRRMNEGQVYSFSQQPQDQVVVSGQPVTLLCAIPEYDGFVLWIKDGLALGVGRDLSSYPQYLVVGNHLSGEHHLKILRAELQDDAVYECQAIQAAIRSRPARLTVLVPPDDPIILGGPVISLRAGDPLNLTCHADNAKPAASIIWLRKGEVINGATYSKTLLRDGKRESIVSTLFISPGDVENGQSIVCRATNKAIPGGKETSVTIDIQHPPLVNLSVEPQPVLEDNIVTFHCSAKANPAVTQYRWAKRGHIIKEASGELYRTTVDYTYFSEPVSCEVTNALGSTNLSRTVDVYFGPRMTSEPQSLLVDLGSDAVFSCAWIGNPSLTIVWMKRGSGVVLSNEKTLTLKSVRQEDAGKYVCRAVVPRVGAGEREVTLTVNGPPIISSTQTQHALHGEKGQIKCFIRSTPPPDRIAWSWKENVLESGTSGRYTVETVNTEEGVISTLTISNIVRADFQTIYNCTAWNSFGSDTEIIRLKEQGSEMKSGAGLEAESVPMA | 210 nM | 2 |
| mouse Kirrel2 ectodomain, wild type (domain or fragment, UniProt Q7TSU7 20-507, looked up) SPHFLQQPEDMVVLLGEEARLPCALGAYRGLVQWTKDGLALGGERDLPGWSRYWISGNSASGQHDLHIKPVELEDEASYECQASQAGLRSRPAQLHVMVPPEAPQVLGGPSVSLVAGVPGNLTCRSRGDSRPAPELLWFRDGIRLDGSSFHQTTLKDKATGTVENTLFLTPSSHDDGATLICRARSQALPTGRDTAVTLSLQYPPMVTLSAEPQTVQEGEKVTFLCQATAQPPVTGYRWAKGGSPVLGARGPRLEVVADATFLTEPVSCEVSNAVGSANRSTALEVLYGPILQAKPKSVSVDVGKDASFSCVWRGNPLPRITWTRMGGSQVLSSGPTLRLPSVALEDAGDYVCRAEPRRTGLGGGKAQARLTVNAPPVVTALQPAPAFLRGPARLQCVVFASPAPDSVVWSWDEGFLEAGSLGRFLVEAFPAPEVEGGQGPGLISVLHISGTQESDFTTGFNCSARNRLGEGRVQIHLGRRDLLPTVR | 900 nM | 2 |
